{"source": "patent US20160200814A1", "about": "“IMMUNORECEPTOR MODULATION FOR TREATING CANCER AND VIRAL INFECTIONS” (THE COUNCIL OF THE QUEENSLAND INSTITUTE OF MEDICAL RESEARCH, priority 2013, published 2016)", "molecules": {"B1": {"name": "recombinant CD96: recombinant CD96 protein used at 50 μg/ml as competitor of DNAM-1-Fc binding (protein, UniProt P40200 22-585, looked up)", "T-cell surface protein tactile": "VWEKTVNTEENVYATLGSDVNLTCQTQTVGFFVQMQWSKVTNKIDLIAVYHPQYGFYCAYGRPCESLVTFTETPENGSKWTLHLRNMSCSVSGRYECMLVLYPEGIQTKIYNLLIQTHVTADEWNSNHTIEIEINQTLEIPCFQNSSSKISSEFTYAWSVENSSTDSWVLLSKGIKEDNGTQETLISQNHLISNSTLLKDRVKLGTDYRLHLSPVQIFDDGRKFSCHIRVGPNKILRSSTTVKVFAKPEIPVIVENNSTDVLVERRFTCLLKNVFPKANITWFIDGSFLHDEKEGIYITNEERKGKDGFLELKSVLTRVHSNKPAQSDNLTIWCMALSPVPGNKVWNISSEKITFLLGSEISSTDPPLSVTESTLDTQPSPASSVSPARYPATSSVTLVDVSALRPNTTPQPSNSSMTTRGFNYPWTSSGTDTKKSVSRIPSETYSSSPSGAGSTLHDNVFTSTARAFSEVPTTANGSTKTNHVHITGIVVNKPKDGMSWPVIVAALLFCCMILFGLGVRKWCQYQKEIMERPPPFKPPPPPIKYTCIQEPNESDLPYHEMETL"}}, "target": "T1, CD155 at the cell surface of B16F10 (Mus musculus, UniProt F6V4I7)", "T1 construct": "at the cell surface of B16F10 cells; endogenous in cells; host or cells: B16F10 melanoma cells", "T1 sequence (F6V4I7 29-408)": "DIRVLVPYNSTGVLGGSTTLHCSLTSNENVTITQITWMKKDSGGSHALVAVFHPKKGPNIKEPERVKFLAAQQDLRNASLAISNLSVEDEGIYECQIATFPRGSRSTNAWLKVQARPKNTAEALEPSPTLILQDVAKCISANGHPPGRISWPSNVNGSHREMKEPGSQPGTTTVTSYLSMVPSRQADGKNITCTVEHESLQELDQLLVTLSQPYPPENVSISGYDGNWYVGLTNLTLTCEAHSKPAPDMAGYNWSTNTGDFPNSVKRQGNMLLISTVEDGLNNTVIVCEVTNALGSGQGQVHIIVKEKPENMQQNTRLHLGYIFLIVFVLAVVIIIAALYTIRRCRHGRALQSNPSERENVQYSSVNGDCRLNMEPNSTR", "assay": "Binding of DNAM-1-Fc (AF-647) at the cell surface of B16F10 cells, flow cytometry", "settings": "FIG. 3c; DNAM-1-Fc AF-647 0.5-20 μg/ml; competitor 50 μg/ml; versus control Ig", "text": "FIG. 3: CD96 limits NK cell-dependent tumor immunosurveillance. a, b. CD96 and DNAM-1 have an opposite role in the control of B16F10 metastasis. a. 2×10^5 B16F10 cells were intravenously injected into WT, CD96^−/−, DNAM-1^−/− and DNAM-1^−/− CD96^−/− mice and metastatic burden was quantified in the lungs after 14 days. Representative experiment out of 3. b. Pictures showing the lung of WT and CD96^−/− mice two weeks after the injection of 2×10^5 and 5×10^5 B16F10 cells. Representative experiment out of two. c. […] The binding of DNAM-1-Fc labeled with AF-647 (0.5-20 μg/ml) at the cell surface of B16F10 cells was analyzed in the presence of 50 μg/ml of control Ig, recombinant CD96 or TIGIT-Fc. The FACS histograms and the mean±SD of triplicate wells from one representative experiment out of 3 are shown. d. A 4 hr^51 Cr release assay was performed between B16F10 cells and IL-2-activated NK cells from WT, DNAM-1^−/− and CD96^−/− mice at the indicated effector target ratios. Solid circles represent WT NK cells, open circles represent CD96^−/− NK cells and solid squares represents DNAM-1^−/− NK cells. e-h. CD96 and DNAM-1 have an opposite role in the immunosurveillance of MCA induced fibrosarcoma mediated by NK cells. e-h Groups of 15-30 male, WT, DNAM-1^−/− and CD96^−/− and DNAM-1^−/− CD96^−/− mice were injected with MCA (100 μg/mouse). […]"}
{"molecule": "B1", "values": [{"measurement": "competition with DNAM-1-Fc binding to CD155", "result": "compete with DNAM-1 for the binding of CD155 at the cell surface of B16F10"}]}
